In publication PMC9696579 (Nature structural & molecular biology, 2022):

Biological target: mouse PKA-Cα (Mus musculus, UniProt P05132)
Experiment: Surface plasmon resonance
Conditions: SPR; mouse PKA-Cα; ATP and MgCl2 present

B1: SMO pCT WRR mutant: SMO pCT harboring the WRR mutation, GST-tagged for SPR (protein)
chain: KRIKKSKMIAKAFSKRRELLQNPGQELSFSMHTVSHDGPVAGLAFDLNEPSADVSSAAAQHVTKMVAAAGAILPQDVSVTPVATPVPPEEQAN
modifications: left off: GST, end not stated, kept
  binding to PKA-Cα: no PKA-C binding was observed
